Reference: patent US6767890

Target: Galanin receptor of rat ileum (rat)
Assay: cell-based or functional assay

Agonism (contraction of rat ileum), galanin 0.1 µM: 100% | Agonism, average of two preparations, galanin 0.1 µM: 100%
Substance: Galanin (peptide)
